From US20250197838A1, “UROKINASE-TYPE PLASMINOGEN ACTIVATOR RECEPTOR BINDING PEPTIDES AND METHODS OF USE” (The United States Government as represented by the …, priority 2022, published 2025)
Blank lines part the entries; values can stand above or below the molecule they belong to.

Legend:
FXII-uPAR binding = FXII-uPAR binding (Homo sapiens, UniProt Q03405); experiment: Microscale thermophoresis of FXII-uPAR binding in absence or presence of FXII-derived inhibitory peptides; conditions: FIG. 2A
Protocol: FIGS. 2A-D show the characterization of FXII-derived inhibitory peptides. […] FXII_fl: recombinant full length FXII: Combo: combination of IPP-DLA-LHV peptides, 10 μM each. * p=0.004 FXII_fl vs. Combo, 2-way ANOVA.
The results provide insight on the structure of the non-catalytic region of FXII. These advances have also provided the structural details required to develop peptide antagonists. To this end, 3 peptides containing FXII amino acid residues implicated in uPAR binding were synthesized and termed “IPP” (corresponding to SEQ ID NO: 1), “DLA” (corresponding to SEQ ID NO: 2), and “LHV” (corresponding to SEQ ID NO: 3). The kinetics of peptide interference with FXII-uPAR binding was screened which yielded nanomolar affinity for each (FIG. 2A).

uPAR [1] = target: T1, uPAR (Homo sapiens, UniProt Q03405); experiment: Hydroxyl radical footprinting (HRF) with LC-MS: free FXII vs FXII in complex with uPAR; assay type: binding
Protocol: Briefly, free uPAR and human FXII protein samples were prepared with the final protein concentration of 2.5 μM and 3 μM, respectively (1:1.2 uPAR: FXII molar ratio). Free uPAR and FXII and FXII-uPAR complex were exposed to hydroxyl radicals for intervals of 0, 12, 20, and 40 milliseconds using the X-ray beam line. Next, the irradiated samples were reduced and alkylated with 10 mM and 25 mM of DTT and iodoacetamide, respectively. Subsequently, the samples were subjected to a trypsin and AspN digestion (1:10 enzyme to protein ratio) followed by liquid chromatography coupled with high-resolution mass spectrometry (LC-MS). The MS data were analyzed manually resulting in dose-response plots for each peptide. The HRF process introduces stable side chain oxidative modifications resulting in specific mass shifts, which were identified from the tandem mass spectrometry data. The selected ion chromatograms (SIC) were extracted and integrated for the un-oxidized and the oxidized forms of peptide ion (with particular m z). These peak area values were used to characterize reaction kinetics in the form of dose-response (DR) plots, which measure the loss of intact peptide as a function of the hydroxyl radical exposure. […] Differences in the rate of oxidation (called rate constant, RC) indicate the potential locations of the binding interface. MSI data for free and complex proteins were used to determine RC values for each peptide within the protein. Peptide location and the corresponding sequence are shown in columns 1 and 2, respectively. The third and fourth columns show the RC values for the free FXII protein and complex, respectively. The RC values were averaged from replicate experiments and the associated errors are shown next to each RC value.
Target sequence in this assay (Q03405 23-305 limits assumed): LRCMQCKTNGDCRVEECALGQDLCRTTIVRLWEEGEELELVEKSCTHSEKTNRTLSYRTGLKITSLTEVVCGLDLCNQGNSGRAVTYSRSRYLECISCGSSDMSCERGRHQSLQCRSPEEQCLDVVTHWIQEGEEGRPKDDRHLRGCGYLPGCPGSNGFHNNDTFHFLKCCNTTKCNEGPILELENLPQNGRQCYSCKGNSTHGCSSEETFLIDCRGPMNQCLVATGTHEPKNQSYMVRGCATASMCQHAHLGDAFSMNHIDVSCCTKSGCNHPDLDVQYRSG

[2] = target: T2, urokinase-type plasminogen activator receptor (uPAR; Plaur, Homo sapiens) (Homo sapiens, UniProt Q03405 23-305, limits assumed); experiment: peptide interference with FXII-uPAR binding, microscale thermophoresis
T2 construct: also called human uPAR; human soluble uPAR

uPAR [3] = target: T1, uPAR; experiment: Microscale thermophoresis of uPAR binding on site-directed FXII mutants (Ala substitutions); conditions: FIG. 1D
Description: FIGS. 1A-D show the characterization of the FXII-uPAR binding interphase.
Each variant was characterized in several assays including microscale thermophoresis. […] These findings explain, at least in part, why the FXII-uPAR interaction is not a constitutive process in vivo.
Target sequence in this assay (Q03405 23-305): as the sequence (Q03405 23-305 limits assumed) above

Sequence of FXII-uPAR binding (Q03405 23-305 limits assumed): as above
T2 sequence (Q03405 23-305 limits assumed): as above

affinity, peptide interference with FXII-uPAR binding (FXII-uPAR binding): nanomolar
Molecule: LHVPLMPAQPAPPK [listing 1 of 2 here]

affinity, peptide interference with FXII-uPAR binding (FXII-uPAR binding): nanomolar
Molecule: DLAQCQTPTQAAPPTPVSPR [listing 1 of 2 here]

Modification rate, KFXII, S^−1 FXII free (uPAR [1]; site P285, FXII position 272-291): 1.3 ± 0.061 S^−1
Modification rate, KCOM, S^−1 FXII complex (uPAR [1]; site P285, FXII position 272-291, complex with human uPAR): 0.87 ± 0.030 S^−1
Modification rate, KFXII, S^−1 FXII free (uPAR [1]; site P287, FXII position 272-291): 0.23 ± 0.021 S^−1
Modification rate, KCOM, S^−1 FXII complex (uPAR [1]; site P287, FXII position 272-291, complex with human uPAR): 0.11 ± 0.009 S^−1
Modification rate, KFXII, S^−1 FXII free (uPAR [1]; site Q281, FXII position 272-291): 0.97 ± 0.047 S^−1
Modification rate, KCOM, S^−1 FXII complex (uPAR [1]; site Q281, FXII position 272-291, complex with human uPAR): 0.53 ± 0.019 S^−1
Modification rate, KFXII, S^−1 FXII free (uPAR [1]; site V288, FXII position 272-291): 0.71 ± 0.04 S^−1
Modification rate, KCOM, S^−1 FXII complex (uPAR [1]; site V288, FXII position 272-291, complex with human uPAR): 0.46 ± 0.019 S^−1
Molecule: DLAQCQTPTQAAPPTPVSPR [listing 2 of 2 here]

More lines, now with the values behind:

Molecule: IPPWEAPK [listing 1 of 2 here]
Modification rate, KFXII, S^−1 FXII free (uPAR [1]; site W4, FXII position 1-8): 3.08 ± 0.25 S^−1
Modification rate, KCOM, S^−1 FXII complex (uPAR [1]; site W4, FXII position 1-8, complex with human uPAR): 3.08 ± 0.13 S^−1

Molecule: IPPWEAPK [listing 2 of 2 here]
affinity, peptide interference with FXII-uPAR binding (FXII-uPAR binding): nanomolar

Molecule: LHVPLMPAQPAPPK [listing 2 of 2 here]
Modification rate, KFXII, S^−1 FXII free (uPAR [1]; site H293, FXII position 292-305): 2.55 ± 0.30 S^−1
Modification rate, KCOM, S^−1 FXII complex (uPAR [1]; site H293, FXII position 292-305, complex with human uPAR): 1.82 ± 0.15 S^−1
Modification rate, KFXII, S^−1 FXII free (uPAR [1]; site K305, FXII position 292-305): 1.06 ± 0.063 S^−1
Modification rate, KCOM, S^−1 FXII complex (uPAR [1]; site K305, FXII position 292-305, complex with human uPAR): 0.58 ± 0.042 S^−1
Modification rate, KFXII, S^−1 FXII free (uPAR [1]; site L296, FXII position 292-305): 0.62 ± 0.054 S^−1
Modification rate, KCOM, S^−1 FXII complex (uPAR [1]; site L296, FXII position 292-305, complex with human uPAR): 0.29 ± 0.057 S^−1
Modification rate, KFXII, S^−1 FXII free (uPAR [1]; site V294, FXII position 292-305): 0.85 ± 0.093 S^−1
Modification rate, KCOM, S^−1 FXII complex (uPAR [1]; site V294, FXII position 292-305, complex with human uPAR): 0.79 ± 0.078 S^−1

B1: IPP peptide (IPPWEAPK) (peptide)
peptide: IPPWEAPK
notes: Synthesized FXII-derived peptide
binding result [2]: binds

B2: W4A variant: zymogen FXII with single Ala substitution of W residue at position 4 (protein)
chain: IPPAEAPKEHKYKAEEHTVVLTVTGEPCHFPFQYHRQLYHKCTHKGRPGPQPWCATTPNFDQDQRWGYCLEPKKVKDHCSKHSPCQKGGTCVNMPSGPHCLCPQHLTGNHCQKEKCFEPQLLRFFHKNEIWYRTEQAAVARCQCKGPDAHCQRLASQACRTNPCLHGGRCLEVEGHRLCHCPVGYTGAFCDVDTKASCYDGRGLSYRGLARTTLSGAPCQPWASEATYRNVTAEQARNWGLGGHAFCRNPDNDIRPWCFVLNRDRLSWEYCDLAQCQTPTQAAPPTPVSPRLHVPLMPAQPAPPKPQPTTRTPPQSQTPGALPAKREQPPSLTRNGPLSCGQRLRKSLSSMTRVVGGLVALRGAHPYIAALYWGHSFCAGSLIAPCWVLTAAHCLQDRPAPEDLTVVLGQERRNHSCEPCQTLAVRSYRLHEAFSPVSYQHDLALLRLQEDADGSCALLSPYVQPVCLPSGAARPSETTLCQVAGWGHQFEGAEEYASFLQEAQVPFLSLERCSAPDVHGSSILPGMLCAGFLEGGTDACQGDSGGPLVCEDQAAERRLTLQGIISWGSGCGDRNKPGVYTDVAYYLAWIREHTVS
FXII-uPAR binding of FXII variant (uPAR [3]): significantly reduced

B3: LHV peptide (LHVPLMPAQPAPPK) (peptide)
peptide: LHVPLMPAQPAPPK
notes: as for B1
binding result [2]: binds

B4: DLA peptide (DLAQCQTPTQAAPPTPVSPR) (peptide)
peptide: DLAQCQTPTQAAPPTPVSPR
notes: as for B1
binding result [2]: binds
